Reference: PMC3293039, “Highly stable meso-diaminopimelate dehydrogenase from an Ureibacillus thermosphaericus strain A1 isolated from a Japanese compost: purification, characterization and sequencing” (AMB Express, 2011)

Legend:
purified protein [1] = substrate: NC(=O)c1ccc[n+]([C@@H]2O[C@H](COP(=O)(O)OP(=O)(O)OC[C@H]3O[C@@H](n4cnc5c(N)ncnc54)[C@H](OP(=O)(O)O)[C@@H]3O)[C@@H](O)[C@H]2O)c1; test: purified protein; type: biochemical, Ureibacillus thermosphaericus; details: oxidative deamination, meso-DAP as co-substrate, carbonate-KOH pH 10.5, 50 °C, varied: cofactor
purified protein [2] = substrate: N[C@H](CCC[C@H](N)C(=O)O)C(=O)O; test: purified protein; type: biochemical, Ureibacillus thermosphaericus; details: oxidative deamination, NADP as co-substrate, carbonate-KOH pH 10.5, 50 °C

B1: meso-DAPDH (meso-diaminopimelate dehydrogenase) (Ureibacillus thermosphaericus) (protein)
chain: SKIRIGIVGYGNLGRGVEAAIQQNPDMELVAVFTRRDPKTVAVKSNVKVLHVDDAQSYKDEIDVMILCGGSATDLPEQGPYFAQYFNTIDSFDTHARIPDYFDAVNAAAEQSGKVAIISVGWDPGLFSLNRLLGEVVLPVGNTYTFWGKGVSQGHSDAIRRIQGVKNAVQYTIPIDEAVNRVRSGENPELSTREKHARECFVVLEEGADPAKVEHEIKTMPNYFDEYDTTVHFISEEELKQNHSGMPHGGFVIRSGKSDEGHKQIIEFSLNLESNPMFTSSALVAYARAAYRLSQNGDKGAKTVFDIPFGLLSPKSPEDLRKELL
notes: native, purified from U. thermosphaericus A1 cells; gene encodes 326 residues; homodimer about 80 kDa, subunit about 40 kDa; N-terminus SKIRIGIVGY (initiator Met removed)
- Km (purified protein [1]): 130 µM
- Km (purified protein [2]): 1600 µM
